The values below come from patent US20150258192A1, “COMPOSITIONS AND METHODS FOR PREVENTING OR TREATING CHRONIC LUNG ALLOGRAFT DYSFUNCTION (CLAD) AND IDIOPATHIC PULMONARY FIBROSIS (IPF)” (priority 2014, published 2015).

Holding throughout (assay): Kinase Profiling Assay
Common to all, as to type: biochemical
Holding throughout (conditions): peptide 100 μM

The target in test [1] is T1, ARK5(h) (Homo sapiens, UniProt O60285).
T1 sequence (O60285 1-661): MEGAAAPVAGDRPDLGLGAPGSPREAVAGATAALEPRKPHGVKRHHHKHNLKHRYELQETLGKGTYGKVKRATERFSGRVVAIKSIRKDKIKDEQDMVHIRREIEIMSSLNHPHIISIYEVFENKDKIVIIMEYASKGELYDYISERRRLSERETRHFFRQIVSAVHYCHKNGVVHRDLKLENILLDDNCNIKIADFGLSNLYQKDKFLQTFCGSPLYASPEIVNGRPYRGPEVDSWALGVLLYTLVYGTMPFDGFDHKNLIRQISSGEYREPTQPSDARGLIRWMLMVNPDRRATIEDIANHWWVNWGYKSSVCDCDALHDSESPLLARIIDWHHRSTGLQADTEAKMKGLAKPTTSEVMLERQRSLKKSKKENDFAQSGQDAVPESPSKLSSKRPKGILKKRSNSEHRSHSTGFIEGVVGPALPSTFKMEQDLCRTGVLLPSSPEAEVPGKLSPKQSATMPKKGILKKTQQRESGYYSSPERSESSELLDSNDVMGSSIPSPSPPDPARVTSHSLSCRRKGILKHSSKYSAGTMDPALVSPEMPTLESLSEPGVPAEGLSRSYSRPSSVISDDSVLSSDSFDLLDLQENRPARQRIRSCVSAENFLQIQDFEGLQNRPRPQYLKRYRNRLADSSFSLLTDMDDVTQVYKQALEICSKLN
A digest of the protocol: (§1)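 Kinase inhibition by MK2 inhibitory peptides was profiled radiometrically, with substrate phosphorylation from labeled ATP read by scintillation after capture on a charged filter. Values are relative to 100% activity and measured in duplicate.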

Test [2] addresses DAPK1(h) (Homo sapiens, UniProt P53355). A digest of the protocol: as §1
In test [3] the target is T2, EphA8(h) (Homo sapiens, UniProt P29322).
T2 sequence (P29322 28-1005): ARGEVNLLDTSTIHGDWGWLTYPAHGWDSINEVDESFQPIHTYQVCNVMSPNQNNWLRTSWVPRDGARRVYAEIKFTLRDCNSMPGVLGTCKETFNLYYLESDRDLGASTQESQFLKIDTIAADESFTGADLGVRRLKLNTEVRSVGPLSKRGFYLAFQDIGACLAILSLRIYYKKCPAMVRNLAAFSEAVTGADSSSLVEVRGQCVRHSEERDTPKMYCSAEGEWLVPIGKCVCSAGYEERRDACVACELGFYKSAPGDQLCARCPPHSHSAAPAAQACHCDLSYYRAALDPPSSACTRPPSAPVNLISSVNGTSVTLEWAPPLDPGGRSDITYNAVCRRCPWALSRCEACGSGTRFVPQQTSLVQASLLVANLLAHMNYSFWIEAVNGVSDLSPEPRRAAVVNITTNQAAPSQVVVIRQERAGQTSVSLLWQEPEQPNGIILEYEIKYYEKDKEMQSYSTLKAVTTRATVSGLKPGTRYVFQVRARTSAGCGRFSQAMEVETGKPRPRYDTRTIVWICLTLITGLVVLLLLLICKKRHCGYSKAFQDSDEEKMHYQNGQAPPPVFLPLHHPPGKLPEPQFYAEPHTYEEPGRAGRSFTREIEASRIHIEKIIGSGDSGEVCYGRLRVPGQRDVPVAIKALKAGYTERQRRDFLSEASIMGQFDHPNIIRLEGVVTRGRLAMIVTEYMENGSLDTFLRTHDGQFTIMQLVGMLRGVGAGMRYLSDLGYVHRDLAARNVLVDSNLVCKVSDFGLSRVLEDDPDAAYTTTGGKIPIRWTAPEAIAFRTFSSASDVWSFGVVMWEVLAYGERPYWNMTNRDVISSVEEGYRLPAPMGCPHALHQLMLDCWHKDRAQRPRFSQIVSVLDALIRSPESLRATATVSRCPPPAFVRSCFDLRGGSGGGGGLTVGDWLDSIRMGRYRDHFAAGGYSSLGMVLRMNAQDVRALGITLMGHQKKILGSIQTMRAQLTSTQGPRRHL
In short, it runs like this:
as §1

Test [4] concerns the target T3, Itk(h) (Homo sapiens, UniProt Q08881).
T3 construct: purchased Millipore
T3 sequence (Q08881 1-620): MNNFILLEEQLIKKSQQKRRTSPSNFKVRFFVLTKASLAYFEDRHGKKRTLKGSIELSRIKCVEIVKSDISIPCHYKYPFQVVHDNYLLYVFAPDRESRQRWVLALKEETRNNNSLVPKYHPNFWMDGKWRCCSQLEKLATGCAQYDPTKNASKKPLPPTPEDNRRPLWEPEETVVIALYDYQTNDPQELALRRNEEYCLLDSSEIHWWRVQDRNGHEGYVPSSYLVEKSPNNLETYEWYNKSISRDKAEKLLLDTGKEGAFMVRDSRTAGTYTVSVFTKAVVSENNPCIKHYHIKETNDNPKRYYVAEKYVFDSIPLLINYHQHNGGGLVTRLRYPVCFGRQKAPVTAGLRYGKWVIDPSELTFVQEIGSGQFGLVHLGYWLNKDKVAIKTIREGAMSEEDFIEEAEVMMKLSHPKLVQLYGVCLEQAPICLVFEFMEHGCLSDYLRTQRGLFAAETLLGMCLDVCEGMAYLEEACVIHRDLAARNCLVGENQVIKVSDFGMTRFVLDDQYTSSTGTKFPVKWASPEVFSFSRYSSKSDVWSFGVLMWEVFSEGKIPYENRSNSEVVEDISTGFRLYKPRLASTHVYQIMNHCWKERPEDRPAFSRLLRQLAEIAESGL
A digest of the protocol:
as §1

The target of test [5] is PKCδ(h) (Homo sapiens, UniProt Q05655). In short, it runs like this:
as §1

No end group written: not given here.

DAPK1(h), sequence (P53355 whole entry): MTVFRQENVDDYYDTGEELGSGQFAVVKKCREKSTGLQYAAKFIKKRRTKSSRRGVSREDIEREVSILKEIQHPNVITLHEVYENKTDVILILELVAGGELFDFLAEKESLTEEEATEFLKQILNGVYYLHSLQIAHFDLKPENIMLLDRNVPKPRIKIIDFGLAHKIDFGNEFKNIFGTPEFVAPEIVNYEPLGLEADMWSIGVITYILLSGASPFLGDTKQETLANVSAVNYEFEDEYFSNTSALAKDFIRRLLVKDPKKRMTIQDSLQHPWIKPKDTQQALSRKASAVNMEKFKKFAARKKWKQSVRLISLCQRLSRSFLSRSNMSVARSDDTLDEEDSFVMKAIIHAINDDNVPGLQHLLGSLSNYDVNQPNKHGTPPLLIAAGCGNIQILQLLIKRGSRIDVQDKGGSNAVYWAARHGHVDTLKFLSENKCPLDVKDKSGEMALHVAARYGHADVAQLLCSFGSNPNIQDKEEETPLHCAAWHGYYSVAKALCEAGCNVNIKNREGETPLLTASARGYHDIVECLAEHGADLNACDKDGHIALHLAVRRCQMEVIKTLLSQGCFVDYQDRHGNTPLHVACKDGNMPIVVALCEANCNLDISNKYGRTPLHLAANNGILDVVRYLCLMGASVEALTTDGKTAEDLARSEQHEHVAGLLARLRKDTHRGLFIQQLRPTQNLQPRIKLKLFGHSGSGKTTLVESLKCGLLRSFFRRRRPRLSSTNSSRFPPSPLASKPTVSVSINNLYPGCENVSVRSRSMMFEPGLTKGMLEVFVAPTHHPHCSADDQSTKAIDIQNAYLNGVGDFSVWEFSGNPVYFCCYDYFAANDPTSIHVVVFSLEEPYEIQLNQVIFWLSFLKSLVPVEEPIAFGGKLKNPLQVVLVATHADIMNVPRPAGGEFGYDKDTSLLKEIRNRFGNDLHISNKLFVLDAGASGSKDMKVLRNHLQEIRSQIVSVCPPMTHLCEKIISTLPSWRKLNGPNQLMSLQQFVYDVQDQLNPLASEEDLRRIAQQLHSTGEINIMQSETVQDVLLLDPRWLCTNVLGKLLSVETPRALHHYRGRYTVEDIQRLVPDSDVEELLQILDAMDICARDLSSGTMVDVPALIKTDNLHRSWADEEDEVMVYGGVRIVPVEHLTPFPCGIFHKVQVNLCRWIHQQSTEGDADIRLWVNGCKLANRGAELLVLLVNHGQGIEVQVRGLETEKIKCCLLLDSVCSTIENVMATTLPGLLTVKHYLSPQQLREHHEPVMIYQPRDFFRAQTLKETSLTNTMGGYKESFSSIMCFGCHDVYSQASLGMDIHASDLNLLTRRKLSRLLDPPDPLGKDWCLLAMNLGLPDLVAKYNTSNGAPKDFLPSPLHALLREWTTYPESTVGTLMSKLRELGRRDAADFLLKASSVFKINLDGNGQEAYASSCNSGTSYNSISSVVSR
PKCδ(h), sequence (Q05655 whole entry): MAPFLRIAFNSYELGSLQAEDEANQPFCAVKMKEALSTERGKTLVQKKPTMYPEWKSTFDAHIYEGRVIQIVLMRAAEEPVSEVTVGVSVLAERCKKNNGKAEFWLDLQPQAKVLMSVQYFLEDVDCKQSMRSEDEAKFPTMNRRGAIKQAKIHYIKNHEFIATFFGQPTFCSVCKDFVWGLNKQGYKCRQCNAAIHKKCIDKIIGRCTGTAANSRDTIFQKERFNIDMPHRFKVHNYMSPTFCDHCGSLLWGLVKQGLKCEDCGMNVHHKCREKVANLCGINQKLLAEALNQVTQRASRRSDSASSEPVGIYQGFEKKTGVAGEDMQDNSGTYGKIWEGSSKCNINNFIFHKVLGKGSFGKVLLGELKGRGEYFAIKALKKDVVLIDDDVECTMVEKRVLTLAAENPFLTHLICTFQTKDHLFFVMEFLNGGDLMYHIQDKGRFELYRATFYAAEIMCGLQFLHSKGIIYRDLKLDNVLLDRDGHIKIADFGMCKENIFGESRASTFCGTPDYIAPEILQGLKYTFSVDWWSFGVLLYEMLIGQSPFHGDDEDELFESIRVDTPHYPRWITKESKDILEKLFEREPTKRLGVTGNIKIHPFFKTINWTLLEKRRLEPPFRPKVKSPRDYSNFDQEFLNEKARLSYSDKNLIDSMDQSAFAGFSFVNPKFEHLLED

With FAKLAARLYRKALARQLGVAA [MMI-0300], the “% activity” value in test [1] amounted to 78%; in test [2], 46%; in test [3] it was 93%; in test [4], 77%; in test [5], 101%.

In the case of “HRRIKAWLKKIKALARQLGVAA (Mammal) [MMI-0500]”, the “% activity” value in test [1] is reported as 20%; in test [2], 0%; in test [3] it was 337%; in test [4], 7%; in test [5], 61%.

Take KAFAKLAARLYRKALARQLGVAA [MMI-0400]: the “% activity” value turned out to be 69% in test [1]; 36% in test [2]; 146% in test [3]; 63% in test [4]; 90% in test [5].

For the sequence YARAAARQARAKALARQLGVAA [MMI-0100], the “% activity” value is 108% in test [1], 97% in test [2], 181% in test [3] and 99% in test [4].

With “YARAAARQARAKALNRQLGVA (Mammal) [MMI-0200]”, the “% activity” value in test [1] stood at 93%; in test [3], 133%; in test [4], 98%; in test [5], 101%.
